# Results taken from PMC6021170.
# Positions count from the first letter of the chain named. Numbers in names are those of the source.
# B1: calnexin (natural protein)
# chain: HDGHDDDVIDIEDDLDDVIEEVEDSKPDTTAPPSSPKVTYKAPVPTGEVYFADSFDRGTLSGWILSKAKKDDTDDEIAKYDGKWEVEEMKESKLPGDKGLVLMSRAKHHAISAKLNKPFLFDTKPLIVQYEVNFQNGIECGGAYVKLLSKTPELNLDQFHDKTPYTIMFGPDKCGEDYKLHFIFRHKNPKTGIYEEKHAKRPDADLKTYFTDKKTHLYTLILNPDNSFEILVDQSVVNSGNLLNDMTPPVNPSREIEDPEDRKPEDWDERPKIPDPEAVKPDDWDEDAPAKIPDEEATKPEGWLDDEPEYVPDPDAEKPEDWDEDMDGEWEAPQIANPRCESAPGCGVWQRPVIDNPNYKGKWKPPMIDNPSYQGIWKPRKIPNPDFFEDLEPFRMTPFSAIGLELWSMTSDIFFDNFIICADRRIVDDWANDGWGLKKAADGAAEPGVVGQMIEAAEERPWLWVVYILTVALPVFLVILFCCSGKKQTSGMEYKKTDAPQPDVKEEEEEKEEEKDKGDEEEEGEEKLEEKQKSDAEEDGGTVSQEEEDRKPKAEEDEILNRSPRNRKPRRE
# B2: corin: N1022Q (protein)
# parent chain: MKQSPALAPEERCRRAGSPKPVLRADDNNMGNGCSQKLATANLLRFLLLVLIPCICALVLLLVILLSYVGTLQKVYFKSNGSEPLVTDGEIQGSDVILTNTIYNQSTVVSTAHPDQHVPAWTTDASLPGDQSHRNTSACMNITHSQCQMLPYHATLTPLLSVVRNMEMEKFLKFFTYLHRLSCYQHIMLFGCTLAFPECIIDGDDSHGLLPCRSFCEAAKEGCESVLGMVNYSWPDFLRCSQFRNQTESSNVSRICFSPQQENGKQLLCGRGENFLCASGICIPGKLQCNGYNDCDDWSDEAHCNCSENLFHCHTGKCLNYSLVCDGYDDCGDLSDEQNCDCNPTTEHRCGDGRCIAMEWVCDGDHDCVDKSDEVNCSCHSQGLVECRNGQCIPSTFQCDGDEDCKDGSDEENCSVIQTSCQEGDQRCLYNPCLDSCGGSSLCDPNNSLNNCSQCEPITLELCMNLPYNSTSYPNYFGHRTQKEASISWESSLFPALVQTNCYKYLMFFSCTILVPKCDVNTGEHIPPCRALCEHSKERCESVLGIVGLQWPEDTDCSQFPEENSDNQTCLMPDEYVEECSPSHFKCRSGQCVLASRRCDGQADCDDDSDEENCGCKERDLWECPSNKQCLKHTVICDGFPDCPDYMDEKNCSFCQDDELECANHACVSRDLWCDGEADCSDSSDEWDCVTLSINVNSSSFLMVHRAATEHHVCADGWQEILSQLACKQMGLGEPSVTKLIQEQEKEPRWLTLHSNWESLNGTTLHELLVNGQSCESRSKISLLCTKQDCGRRPAARMNKRILGGRTSRPGRWPWQCSLQSEPSGHICGCVLIAKKWVLTVAHCFEGRENAAVWKVVLGINNLDHPSVFMQTRFVKTIILHPRYSRAVVDYDISIVELSEDISETGYVRPVCLPNPEQWLEPDTYCYITGWGHMGNKMPFKLQEGEVRIISLEHCQSYFDMKTITTRMICAGYESGTVDSCMGDSGGPLVCEKPGGRWTLFGLTSWGSVCFSKVLGPGVYSNVSYFVEWIKRQIYIQTFLLN
# B3: corin: sN1022Q (protein)
# parent chain: B2 parent chain
# B4: corin: R801A/N1022Q (protein)
# parent chain: B2 parent chain with R801A
# B5: corin: sR801A/N1022Q (protein)
# parent chain: B2 parent chain
# How the values were obtained:
# [1] = ELISA of conditioned medium, endogenous prothrombin, HepG2; conditions: glycan changed form; control: untreated HepG2 cells
# [2] = ELISA of cell lysates, endogenous prothrombin, HepG2; conditions: glycan changed form; control: untreated HepG2 cells
# [3] = western blot of conditioned medium, HEK293; conditions: glycan lost; control: PT-WT
# [4] = western blot of cell lysates, HEK293; conditions: glycan lost; control: PT-WT
# [5] = target: enteropeptidase mutant EK-4Q (human) (UniProt P00734); assay: co-IP; lysates of transfected HEK293 cells immunoprecipitated with anti-V5 antibody and protein A-Sepharose; co-precipitated endogenous chaperones detected by western blotting and densitometry; cells without or with DNJ (2 mM, 37°C, 24-48 hr)
# [6] = target: prothrombin mutant PT-N416Q (human) (UniProt P98073); assay: as above
# Chain of UniProt P98073 (P98073 whole entry, stated change not applied): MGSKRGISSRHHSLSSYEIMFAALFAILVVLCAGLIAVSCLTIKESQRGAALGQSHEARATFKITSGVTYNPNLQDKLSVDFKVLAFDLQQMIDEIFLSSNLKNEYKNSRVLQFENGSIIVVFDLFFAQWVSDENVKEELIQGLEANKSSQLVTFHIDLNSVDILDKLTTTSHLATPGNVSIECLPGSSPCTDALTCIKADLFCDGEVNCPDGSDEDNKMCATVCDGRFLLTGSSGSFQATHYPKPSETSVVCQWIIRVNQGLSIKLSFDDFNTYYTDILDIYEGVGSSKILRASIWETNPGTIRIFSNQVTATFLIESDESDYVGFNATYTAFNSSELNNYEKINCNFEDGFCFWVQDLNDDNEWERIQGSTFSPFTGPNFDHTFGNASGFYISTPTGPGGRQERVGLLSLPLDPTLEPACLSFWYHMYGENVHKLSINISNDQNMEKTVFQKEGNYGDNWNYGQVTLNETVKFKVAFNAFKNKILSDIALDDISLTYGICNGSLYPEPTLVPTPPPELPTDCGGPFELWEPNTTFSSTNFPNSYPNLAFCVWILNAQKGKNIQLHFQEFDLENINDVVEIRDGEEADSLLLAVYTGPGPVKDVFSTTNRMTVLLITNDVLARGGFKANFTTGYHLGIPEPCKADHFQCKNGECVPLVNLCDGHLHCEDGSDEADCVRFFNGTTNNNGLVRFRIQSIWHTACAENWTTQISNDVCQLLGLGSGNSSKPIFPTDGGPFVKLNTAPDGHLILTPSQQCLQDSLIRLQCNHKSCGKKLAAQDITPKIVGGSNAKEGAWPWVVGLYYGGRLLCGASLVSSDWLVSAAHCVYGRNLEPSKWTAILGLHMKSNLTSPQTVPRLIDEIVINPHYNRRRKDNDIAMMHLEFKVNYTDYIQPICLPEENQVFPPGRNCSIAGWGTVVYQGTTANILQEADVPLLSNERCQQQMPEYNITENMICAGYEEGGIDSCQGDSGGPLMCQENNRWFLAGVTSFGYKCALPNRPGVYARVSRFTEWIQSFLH
# [7] = confocal co-staining after 4 hr CHX; conditions: glycan lost; control: WT corin
# [8] = confocal co-staining with or without CHX; conditions: glycan lost; control: WT corin
# [9] = Endo H sensitive/resistant band ratio after 4 hr CHX; conditions: glycan lost; control: WT corin
# [10] = western blot of cell lysates, zymogen bands; conditions: glycan lost
# [11] = western blot, cleaved Corin-p band in lysate; conditions: glycan lost; control: WT corin
# [12] = cell surface biotinylation, western blot densitometry; conditions: glycan lost
# [13] = cycloheximide chase, lysate western blot; conditions: glycan lost; control: WT corin
# [14] = western blot of cell lysates; conditions: glycan lost
# [15] = western blot of conditioned medium; conditions: glycan lost
# [16] = control: sR801A (soluble corin)
molecule,measurement,setting,value
prothrombin (PT): DNJ,"expression_or_secretion, percent_of_wt",[1],decreases
same,expression_or_secretion,[2],no change
prothrombin (PT): PT-N416Q,"expression_or_secretion, percent_of_wt",[3],decreases
same,expression_or_secretion,[4],no change
B1,"co-precipitated level, percent of that with EK-WT",[5],165%
same,"co-precipitated level, percent of that with PT-WT",[6],171%
B2,"localisation_or_trafficking, other: Pearson's correlation coefficient",[7],"increases, 0.35 ± 0.05 vs 0.15 ± 0.06"
same,localisation_or_trafficking,[8],no change
same,localisation_or_trafficking,[9],changes
same,expression_or_secretion,[10]; control: WT corin,no change
same,other: proteolytic processing,[11],decreases
same,"expression_or_secretion, percent_of_wt",[12]; control: WT corin,decreases
same,"degradation_or_half_life, half_life",[13],"increases, 6.1 ± 0.3 vs 3.8 ± 0.4"
B3,expression_or_secretion,[14]; control: sWT (soluble corin),no change
same,"expression_or_secretion, percent_of_wt",[15]; control: sWT (soluble corin),decreases
B4,expression_or_secretion,[10]; control: R801A corin,no change
same,"expression_or_secretion, percent_of_wt",[12]; control: R801A corin,decreases
B5,expression_or_secretion,[14]; [16],no change
same,"expression_or_secretion, percent_of_wt",[15]; [16],decreases
